Test results from the DeepSol protein solubility set.

test: soluble on expression in E. coli; label from the status in PepcDB or PDB records

Row | Sequence | soluble on expression in E. coli
1 | MDRKFNSDEQWYISPLLNLATVKEEMLEVRELGEVIIDRTMDDFDSKTEKEHEMEMWKNSLSYIQGVTEEESLEAIEEVSNLDMFLEGSSDVQTRRFEDMKGDRKFLERSPLVSHKHVISREKTMKTSRQRKSAYVTSLKYDKYMLNAGANTSLFHPQCSILEKCEDDIVLIVDALMPYNRELLSSELRSSRLLKPMTKFLVRGDTLLSDLRQKFVCQSDTIVPLENGLELDPPNLDNATAVRFPSSFIFVHDTFYVDMPPNAIDISHPIRNFMLHREIYDPVEACSMEGVRIIDLKLRLGQPYIFQHSGNCEHLLVFHDLRLLHESDPWGIDKYPFTLYEKGNEKKCDICKKGHVEFVVERHELLPNTYTHFCRTCFQEFNYVHGVKTHSFIAWPYTELQTGEQRGWPFGDFEQEDD | not soluble
2 | MAMLGDQSFAAVKRDVPVDPDRQANDYVRCVADAVTREVGGSWEVVLFRQDSPNAFALPGGKIGVHTGMLRIARNQDQLATVLAHEVAHVLSRHANERLSQQVAVQQGLNAMQALADPSSSSGKTLMGLLGLGAQYGILMPYSRTQESEADLLGLDLMARAGFDPRQSIELWNNMANSGGGQPIEFLSTHPSHATRMQDLAKRMPRALDLQRQAAAQGHRPQCDGIRAGGGLEHHHHHH | not soluble
3 | GDAAKGEKEFNKCKTCHSIIAPDGTEIVKGAKTGPNLYGVVGRTAGTYPEFKYKDSIVALGASGFAWTEEDIATYVKDPGAFLKEKLDDKKAKTEMAFKLAKGGEDVAAYLASVVK | soluble
4 | MAHHHHHHMSVAPKRTAELLWLEQQRARQYEQHRKRVEQQKPCVDNKTPRNLSLSNKRALMEQERRKCIDEENRRLVVNMSAIMERGGGIDNKEPWRRTNGPRDAEIRRRREQQKLAEENLKLLHRLENVKPVYRLEKWEMERDENEILVDRISRYPYIPMNRRKGVGE | soluble
5 | MARKLIDISVPLQNDVPADPPGNHPTIQYIDHQQGLPRMLQFFPGLKAEDLPDGQGWAVEQVSLSTHNGTHLDAPWHFHPTMNRGERALTIDEVPLDWCLQPGVKLDFRHLPDGYVVTAKDVENELERIGHTLAPLEIVVVNTSAGAKFGRPDYVNSGCGVGYEATMYLLERGVRLTGTDAWSWDAPFVFTAQRYAETKDASLIWEGHKASRHIGYCHLEKLHNLELLPATGFMVSCFPVKIERASAGWTRAVAILNDAAALEHHHHHH | soluble
6 | MSLIDFHFHAPVKEFLDFLGEFGEPAIKYFNAKVEVKGLKETLDYYESFGIKRFVVLPIDSTTFLGRRIPNQVINLDDRIVKFISVDPSKPNADEELKRSIKEFEPVGVKLHPQLQGFHPLDERALKIYEIIDNHGLIVVFHTGTSGIGAGVKSSIRLDYGRPIYFDEIAVRFQNMKIILAHFGWPWTEEAIAIALHKPNVYLDLSGWAPRYIPQVIWSNAKRLSDKLLFGSDFPLIRPERWLEEFKSVNLSQDIKDKILKHNAEKLVKKSEGHHHHHH | not soluble
7 | MISPQEQQKQEIATTPSGTKENEKLVVPGVQVALENISTKSVLNAVNYKYAQLFHREQVSSAQSNTTSKQYIEERKTSNGTIGEVLRKFEKGRLLGKGGFAKVYQLTDIHTHQKYAGKIIPKNAIRKESAKQKLISEIRIHRELRHRHIVKFESCFEDQENVYIVLELCPNGSIMDMVRQRGRLTEYETRYFMIQILDAIRYMHRECLVIHRDLKLGNFFLDENMEVKIGDFGLAAQLSSDKERKRTICGTPNYIAPEILSGKQGHSFEVDIWSTGVVFYTMLVGKPPFETSDVKSTYKRIKENIYSIPESLDLSTSAIELIGSILNSDPAKRLSLDEIRSHPFFDAKIPRALSIHALKSTPVFEESELIERNKESSSYKKGRENRQQTVVGSSGLWNDVIQSISQDQRTPLQKLQQHIKSNAAKNNDHAEKLHQALEKHLQLNDNQSKKEEKLLESQEAHSKSTKGIFDKGLDTQSEDEERMVLNKVRDQLTSSFALLKNAEQSPYAFTSSLNTNDGTTSGSPSFQSPVNALTGGAWICKWLDYSKKYGLGYQTCLGSTGVCFNDGTQIILEKGQQNWIYYMKRTESHEERNENKWIKMTMEDYPSELQKKVKLLIHFRNYMLDHTPKGQEDPLISPESSFQNIDTSNETCGAKDATRPVYIKTWFRSPYAIIFRLSNRNIQVDFNDGTEVILSPEVHVVTYRGKDGRRNSYQQGHLPSLPELLKRLRYVMDLLQEMLNRKTS | soluble
8 | PKKPPMNGYQKFSQELLSNGELNHLPLKERMVEIGSRWQRISQSQKEHYKKLAEEQQRQYKVHLDLWVKSLSPQDRAAYKEYISNKRK | soluble
9 | NIVLTQSPASLAVSLGQRATISCRANESVYSYGDSFMHWYQQKPGQPPKLLIYLASNLASGVPARFSGSGSRTDFTLTIDPVETDDAATYYCQQNNEDPWTFGGGTKLEIKRGDAAPTVSIFPPSSEQLTSGGASVVCFLNNFYPKDANVAWKIDGSERQNGVLNSWTDQDSKDSTYSMSSTLTLTKDEYERHNSYTCEATHKTSTSPIVKSFNR | soluble
10 | LDSLNELAVFVDTELKIIWANKAALEYMNMGLEKAIGVCLKVAPGISGPLVEHLNLEEIFTTGEKKSGEYTAQDGRVWFAQAIPVPDEQGKIIGILQTCRDVT | not soluble
11 | EVQDVNDSSWKEFVLESEVPVMVDFWAPWCGPCKLIAPVIDELAKEYSGKIAVYKLNTDEAPGIATQYNIRSIPTVLFFKNGERKESIIGAVPKSTLTDSIEKYL | soluble
12 | MSGLLNFGVPKGSLENATVELFRKAGWQISISSRSYFPGVDDDEMNCKLIRPQEMGKYVERGTIDAGIAGRDWVRENESDVVEVCEMVYSKVSRRPARWVLVVTRDSAVQKPEDLHGATISTELVGFTKRYFAERNIPVTVEFSWGAT | not soluble
13 | MGSDKIHHHHHHMDNLIIKPGYVTQFQCVGPECEDSCCYDWRISFDKKSYKNTIKHPLLATTAKSAFIETKKSTSDWADIRLNEQGACPFVNEHKLCDIHAKAGEQALSHTCKTYPRIHKVIGGNKYESLYLSCPEVTRLVLFNPNAFQFDSNISGIKQPSTPSPIWLEKTHEYSLDLLVNLGLDWEQVLLAIGLLIKVSDQVRQNILPIEELDKRLQQLKLYAQSGALAEQYKNLPYSPLPQMHAFIAVHNELCKTHSRGVRERFTSLNQAVAALCNEENNYQIDALNQAWAEHAVPALISHTDLFERYILYSIYHHHFPLIDSQQLSWEAFRLLVLDCFMIRSYLSAIAFKNKGLSESDIVMCFQLYQVVRQHKIEFTQSMSKTLEECGIDSVPAAICLLKTNI | not soluble
14 | MMLSTEGREGFVVKVRGLPWSCSADEVMRFFSDCKIQNGTSGIRFIYTREGRPSGEAFVELESEEEVKLALKKDRETMGHRYVEVFKSNSVEMDWVLKHTGPNSPDTANDGFVRLRGLPFGCSKEEIVQFFSGLEIVPNGMTLPVDFQGRSTGEAFVQFASQEIAEKALKKHKERIGHRYIEIFKSSRAEVRTHYDPPRKLMAMQRPGPYDRPGAGRGYNSIGRGAGFERMRRGAYGGGYGGYDDYGGYNDGYGFGSDRFGRDLNYCFSGMSDHRYGDGGSSFQSTTGHCVHMRGLPYRATENDIYNFFSPLNPMRVHIEIGPDGRVTGEADVEFATHEDAVAAMAKDKANMQHRYVELFLNSTAGTSGGAYDHSYVELFLNSTAGASGGAYGSQMMGGMGLSNQSSYGGPASQQLSGGYGGGYGGQSSMSGYDQVLQENSSDYQSNLA | soluble
15 | MGSDKIHHHHHHMNITSKLNQIIQECLVNRDSDLFIMPRFDKYQLLYRDAGGYRKSALIDRDEAEQIMMYIKYRADMGISERRRPQSGAMTWLNRQGELVNLRISTVGDFLDRPSMVIRFIYVLKQDEHILDSESMEKIQLATKLRGLMVFSGPMGSGKTTLIYEVARKLSETKMVMSIEDPVEIREHNFLQLQVNEKSGMSYQELLKNGLRNRPDVFIIGEIRDGKTAEIAIQAALSGHLVLTTVHSKSTQGVWNRIVELGVREEHLKEALTAVIYQRMIPAKVGDLKIMAEIKSFHPALKGTKKKWRERLEEWKESGQITKEVFEDFQYG | not soluble
16 | MSLIDIHSHIVFDVDDGPKSREESKALLAESYRQGVRTIVSTSHRRKGMFETPEEKIAESFLQVREIAKEVADDLVIAYGAEIYYTPDVLDKLGKKRIPTLNDSRYALIEFSMNTPYRDIHSALSKILMLGITPVIAHIERYDALGNNEKRVRELIDMGCYTQVNSSHVLKPKLFGERYKFMKKRAQYFLEQTLVHVIASDMHNLDGRPPHMAEAYDFVTQKYGEAKAQELFIDNPRKIIMDQLIEGGSHHHHHH | soluble
